The assay concerns the target Human SARS-CoV-2_Wuhan S (SmT1), C-terminally fused to the resistin trimerization domain (SARS-CoV-2 (Wuhan-Hu-1) | not stated). The experiment in a line: SPR.

Sequence of Human ACE2 (aa18-615), His6-tagged monomeric ACE2 (Q9BYF1 18-615): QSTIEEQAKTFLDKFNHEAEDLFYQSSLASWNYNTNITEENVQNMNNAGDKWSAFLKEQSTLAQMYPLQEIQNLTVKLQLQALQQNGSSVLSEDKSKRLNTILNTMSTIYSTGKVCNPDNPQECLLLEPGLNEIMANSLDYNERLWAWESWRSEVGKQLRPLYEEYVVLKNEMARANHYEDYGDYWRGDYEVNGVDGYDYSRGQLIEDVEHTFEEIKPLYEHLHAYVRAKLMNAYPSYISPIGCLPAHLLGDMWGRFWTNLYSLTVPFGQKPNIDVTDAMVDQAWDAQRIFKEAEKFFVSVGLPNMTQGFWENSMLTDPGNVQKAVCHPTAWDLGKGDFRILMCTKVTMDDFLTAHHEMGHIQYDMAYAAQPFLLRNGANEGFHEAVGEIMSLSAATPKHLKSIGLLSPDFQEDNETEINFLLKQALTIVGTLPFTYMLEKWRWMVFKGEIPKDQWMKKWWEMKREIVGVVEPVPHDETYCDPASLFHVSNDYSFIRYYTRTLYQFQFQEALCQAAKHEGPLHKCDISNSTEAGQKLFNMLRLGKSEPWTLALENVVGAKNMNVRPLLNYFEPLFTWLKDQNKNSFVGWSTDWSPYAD

In turn, “Human ACE2 (aa18-615), His6-tagged monomeric ACE2 (from UniProt Q9BYF1-1 18-615) (receptor)” registered a Kd of 165 nM.
